Residue numbers refer to the chain shown, from its start.
T1: EcAIII α subunit (∼20 kDa) (Escherichia coli, UniProt P37595 1-178)
T1 construct: EcAIII of Escherichia coli, α subunit: cut product of the precursor up to the scissile bond Gly178-Thr179; the linker is partly degraded, residues 158-178 are not visible in the structures; also called subunit α; source: E. coli BL21 Gold, purified (DEAE-Sepharose, SEC); formed by autocleavage of the precursor
T1 sequence (looked up): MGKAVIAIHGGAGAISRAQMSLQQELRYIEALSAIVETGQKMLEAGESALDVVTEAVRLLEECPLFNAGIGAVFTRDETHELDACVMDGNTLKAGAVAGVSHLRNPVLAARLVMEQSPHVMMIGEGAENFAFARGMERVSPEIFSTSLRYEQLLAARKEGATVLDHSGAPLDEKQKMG

B1: wild-type EcAIII, mature (αβ)2 heterotetramer (class 2 L-asparaginase of Escherichia coli) (complex)
chain 1: T1 sequence (looked up)
chain 2: TVGAVALDLDGNLAAATSTGGMTNKLPGRVGDSPLVGAGCYANNASVAVSCTGTGEVFIRALAAYDIAALMDYGGLSLAEACERVVMEKLPALGGSGGLIAIDHEGNVALPFNTEGMYRAWGYAGDTPTTGIYREKGDTVATQ
notes: EcAIII of Escherichia coli, α subunit: cut product of the precursor up to the scissile bond Gly178-Thr179; the linker is partly degraded, residues 158-178 are not visible in the structures; EcAIII of Escherichia coli, β subunit: cut product of the precursor beginning at the nucleophilic Thr179; Gene in pET-11d; no tag is mentioned; Dimer of two αβ heterodimers formed by autocleavage of the …
B2: EcAIII variant RDM1-24, mature (processed into α/β subunits) (complex, Escherichia coli)
chain 1: T1 sequence (looked up)
chain 2: B1 chain 2 with R29A, D32S, S33T
notes: EcAIII of Escherichia coli, α subunit: cut product up to the scissile bond Gly178-Thr179; residues 158-178 not visible in the structure; EcAIII of Escherichia coli, β subunit beginning at Thr179, with the substitutions of RDM1-24; source: E. coli BL21 Gold, purified (DEAE-Sepharose, SEC); copies: 2 + 2
B3: EcAIII variant RDM1-12, mature (processed into α/β subunits) (complex, Escherichia coli)
chain 1: T1 sequence (looked up)
chain 2: B1 chain 2 with G28C, R29T, D32A, S33A
notes: EcAIII of Escherichia coli, α subunit: cut product up to the scissile bond Gly178-Thr179; residues 158-178 not visible in the structure; EcAIII of Escherichia coli, β subunit beginning at Thr179, with the substitutions of RDM1-12; source: E. coli BL21 Gold, purified (DEAE-Sepharose, SEC); copies: 2 + 2
B4: EcAIII variant RDM1-37, mature (processed into α/β subunits) (complex, Escherichia coli)
chain 1: T1 sequence (looked up)
chain 2: B1 chain 2 with G28S, R29T, D32S
notes: EcAIII of Escherichia coli, α subunit: cut product up to the scissile bond Gly178-Thr179; residues 158-178 not visible in the structure; EcAIII of Escherichia coli, β subunit beginning at Thr179, with the substitutions of RDM1-37 (Ser211 kept); source: E. coli BL21 Gold, purified (DEAE-Sepharose, SEC); copies: 2 + 2
B5: EcAIII variant RDM1-38, mature (processed into α/β subunits) (complex, Escherichia coli)
chain 1: T1 sequence (looked up)
chain 2: B1 chain 2 with R29C, D32S, S33V
notes: EcAIII of Escherichia coli, α subunit: cut product up to the scissile bond Gly178-Thr179; residues 158-178 not visible in the structure; EcAIII of Escherichia coli, β subunit beginning at Thr179, with the substitutions of RDM1-38; source: E. coli BL21 Gold, purified (DEAE-Sepharose, SEC); copies: 2 + 2
B6: EcAIII variant RDM1-18, mature (processed into α/β subunits) (complex, Escherichia coli)
chain 1: T1 sequence (looked up)
chain 2: B1 chain 2 with R29V, D32P, S33W
notes: EcAIII of Escherichia coli, α subunit: cut product up to the scissile bond Gly178-Thr179; residues 158-178 not visible in the structure; source: E. coli BL21 Gold, purified (DEAE-Sepharose, SEC); copies: 2 + 2
B7: EcAIII variant RDM1-29, mature (processed into α/β subunits) (complex, Escherichia coli)
chain 1: T1 sequence (looked up)
chain 2: B1 chain 2 with G28C, R29S, D32L, S33V
notes: EcAIII of Escherichia coli, α subunit: cut product up to the scissile bond Gly178-Thr179; residues 158-178 not visible in the structure; EcAIII of Escherichia coli, β subunit beginning at Thr179, with the substitutions of RDM1-29; source: E. coli BL21 Gold, purified (DEAE-Sepharose, SEC); copies: 2 + 2
B8: EcAIII variant RDM1-3, mature (processed into α/β subunits) (complex, Escherichia coli)
chain 1: T1 sequence (looked up)
chain 2: B1 chain 2 with G28H, R29T, D32P, S33Q
notes: EcAIII of Escherichia coli, α subunit: cut product up to the scissile bond Gly178-Thr179; residues 158-178 not visible in the structure; EcAIII of Escherichia coli, β subunit beginning at Thr179, with the substitutions of RDM1-3; source: E. coli BL21 Gold, purified (DEAE-Sepharose, SEC); copies: 2 + 2
B9: EcAIII β subunit (∼15 kDa), wild type (domain or fragment, Escherichia coli, UniProt P37595 179-321, looked up)
chain: B1 chain 2
notes: EcAIII of Escherichia coli, β subunit: cut product of the precursor beginning at the nucleophilic Thr179; also called subunit β; source: E. coli BL21 Gold, purified (DEAE-Sepharose, SEC); formed by autocleavage of the precursor
B10: EcAIII β subunit of variant RDM1-18 (domain or fragment, Escherichia coli, UniProt P37595 179-321, looked up)
chain: B1 chain 2 with R29V, D32P, S33W
notes: also called RDM1-18 β subunit; source: E. coli BL21 Gold, purified (DEAE-Sepharose, SEC); formed by autocleavage of the precursor
B11: EcAIII β subunit of variant RDM1-12 (domain or fragment, Escherichia coli, UniProt P37595 179-321, looked up)
chain: B1 chain 2 with G28C, R29T, D32A, S33A
notes: EcAIII of Escherichia coli, β subunit beginning at Thr179, with the substitutions of RDM1-12; also called RDM1-12 β subunit; source: E. coli BL21 Gold, purified (DEAE-Sepharose, SEC); formed by autocleavage of the precursor
B12: EcAIII β subunit of variant RDM1-37 (domain or fragment, Escherichia coli, UniProt P37595 179-321, looked up)
chain: B1 chain 2 with G28S, R29T, D32S
notes: EcAIII of Escherichia coli, β subunit beginning at Thr179, with the substitutions of RDM1-37 (Ser211 kept); also called RDM1-37 β subunit; source: E. coli BL21 Gold, purified (DEAE-Sepharose, SEC); formed by autocleavage of the precursor
B13: EcAIII β subunit of variant RDM1-38 (domain or fragment, Escherichia coli, UniProt P37595 179-321, looked up)
chain: B1 chain 2 with R29C, D32S, S33V
notes: EcAIII of Escherichia coli, β subunit beginning at Thr179, with the substitutions of RDM1-38; also called RDM1-38 β subunit; source: E. coli BL21 Gold, purified (DEAE-Sepharose, SEC); formed by autocleavage of the precursor
B14: EcAIII β subunit of variant RDM1-29 (domain or fragment, Escherichia coli, UniProt P37595 179-321, looked up)
chain: B1 chain 2 with G28C, R29S, D32L, S33V
notes: EcAIII of Escherichia coli, β subunit beginning at Thr179, with the substitutions of RDM1-29; also called RDM1-29 β subunit; source: E. coli BL21 Gold, purified (DEAE-Sepharose, SEC); formed by autocleavage of the precursor
B15: EcAIII β subunit of variant RDM1-24 (domain or fragment, Escherichia coli, UniProt P37595 179-321, looked up)
chain: B1 chain 2 with R29A, D32S, S33T
notes: EcAIII of Escherichia coli, β subunit beginning at Thr179, with the substitutions of RDM1-24; also called RDM1-24 β subunit; source: E. coli BL21 Gold, purified (DEAE-Sepharose, SEC); formed by autocleavage of the precursor
B16: EcAIII β subunit of variant RDM1-3 (domain or fragment, Escherichia coli, UniProt P37595 179-321, looked up)
chain: B1 chain 2 with G28H, R29T, D32P, S33Q
notes: EcAIII of Escherichia coli, β subunit beginning at Thr179, with the substitutions of RDM1-3; also called RDM1-3 β subunit; source: E. coli BL21 Gold, purified (DEAE-Sepharose, SEC); formed by autocleavage of the precursor
B17: EcAIII variant RDM1-43, unprocessed immature precursor (enzyme, Escherichia coli, UniProt P37595 1-321, looked up)
chain: MGKAVIAIHGGAGAISRAQMSLQQELRYIEALSAIVETGQKMLEAGESALDVVTEAVRLLEECPLFNAGIGAVFTRDETHELDACVMDGNTLKAGAVAGVSHLRNPVLAARLVMEQSPHVMMIGEGAENFAFARGMERVSPEIFSTSLRYEQLLAARKEGATVLDHSGAPLDEKQKMGTVGAVALDLDGNLAAATSTGGMTNKLPVGVGSSPLVGAGCYANNASVAVSCTGTGEVFIRALAAYDIAALMDYGGLSLAEACERVVMEKLPALGGSGGLIAIDHEGNVALPFNTEGMYRAWGYAGDTPTTGIYREKGDTVATQ
notes: EcAIII of Escherichia coli, uncleaved immature precursor (α and β on one chain, linker intact), with the substitutions of RDM1-43 (Ser211 kept); No ability to process into α/β subunits; EcAIII gene in pET-11d; source: E. coli BL21 Gold, purified (DEAE-Sepharose, SEC)
B18: EcAIII variant RDM1-64, unprocessed immature precursor (enzyme, Escherichia coli, UniProt P37595 1-321, looked up)
chain: B17 chain with V206I, G207V, S210I, S211G
notes: EcAIII of Escherichia coli, uncleaved immature precursor (α and β on one chain, linker intact), with the substitutions of RDM1-64; No ability to process into α/β subunits; EcAIII gene in pET-11d; source: E. coli BL21 Gold, purified (DEAE-Sepharose, SEC)
B19: EcAIII variant RDM1-46, unprocessed immature precursor (enzyme, Escherichia coli, UniProt P37595 1-321, looked up)
chain: B17 chain with V206L, G207D, S210L
notes: EcAIII of Escherichia coli, uncleaved immature precursor (α and β on one chain, linker intact), with the substitutions of RDM1-46 (Ser211 kept); No ability to process into α/β subunits; EcAIII gene in pET-11d; source: E. coli BL21 Gold, purified (DEAE-Sepharose, SEC)

Target: the molecule itself
Assay: crystal structure; hanging-drop vapor diffusion at 20°C; 20–30% PEG 4000 or PEG 6000, 0.2 M MgCl2, 100 mM Tris–HCl pH 8.5; protein 10–15 mg/ml; space group P212121
Conditions: not given

Binding result, binds:
B1
B2
B3
B4
B5
B6
B7
B8

target: T1, EcAIII α subunit (∼20 kDa); assay: as above; conditions: both partners purified

Binding result, binds:
B9
B10
B11
B12
B13
B14
B15
B16

Target: the molecule itself
Assay: SEC; SEC profiles of Supplementary Fig. S4; before biophysical measurements proteins were run on Superdex 75 10/300 GL in 20 mM phosphate buffer pH 7.5
Conditions: not given

Binding result, binds:
B17
B18
B19
